{"source": "the nanobody polyreactivity screen of Harvey et al. (2022)", "data": [{"test": "yeast display, Sf9 membrane polyspecificity reagent, FACS + sequencing; frameworks hold sequencing errors", "summary_of_the_method": "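A nanobody's polyreactivity label depends on the gate it was sorted from. Yeast display cells were stained with 10% biotinylated, detergent-solubilized Sf9 membrane reagent for 1 hour at 4 °C, enriched on streptavidin microbeads and sorted by FACS. The low and high (top ~1%) gates were set on anti-HA fluorescence for expression and streptavidin fluorescence for reagent binding.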", "values": [{"sequence": "QVQLVESGGGLVQAGGSLRLSCAASGSIFGANAMGWYRQAPGKERELVAAISTRGGRTYYADSVKARFTISRDNAKNTVSLQMNSLKPEDTALYYCAARRFSKVRSMYYWRQGTQVTVSS", "polyreactivity (PSR sort gate)": "high polyreactivity"}, {"sequence": "QVQLVESGGGLVQAGGSLRLSCAASGSIFGAYAMGWYRQAPGKEREFVAAISSRGGNTYYADSVKGRFTISRDNAKNTVYLQMNSLKPEDTAVYYAVFRYHWKYDYWGQGTQVTVSS", "polyreactivity (PSR sort gate)": "high polyreactivity"}, {"sequence": "QVQLVESGGGLVQAGGSLRLSCAASGSIFGAYAMGWYRQAPGKERELVAAISSGGSTYADSVKGRFTISRDNAKNTVYLQMNSMKPEDTAVYYCNAVFRARNYHYNPRRFKYYYWGQGTQVSVSS", "polyreactivity (PSR sort gate)": "high polyreactivity"}, {"sequence": "QVQLVESGGGLVQAGGSLRLSCAASGSIFGAYTMGWYRQAPGKEREFVAVISKGGTNTYYADSVKGRFTISRDNAKNTVYLQMNSLKPEDTAVYYCAARAYPTWRTYYYWGQGTQVTVSS", "polyreactivity (PSR sort gate)": "high polyreactivity"}, {"sequence": "QVQLVESGGGLVQAGGSLRLSCAASGSIFGDNAMGWYRQAPGKERELVATISSSDASTYYADSVKGRFTISRDNAKNTVYLQMNSLKPEDTSVYYCAAARSGGYDYWGQGTQVTVSS", "polyreactivity (PSR sort gate)": "low polyreactivity"}, {"sequence": "QVQLVESGGGLVQAGGSLRLSCAASGSIFGDYAMGWYRQAPGKERELVAAISRADGTYYADSVKGRFTISRDNAKNTVYLQMNSLKPEDTAVYYCATDYGIRSYYYSWYYVFTADDYWGQGTQVTVSS", "polyreactivity (PSR sort gate)": "low polyreactivity"}, {"sequence": "QVQLVESGGGLVQAGGSLRLSCAASGSIFGDYAMGWYRQAPGTDRELVATITWIGGSTYYADSVKGRFTISRDNAKNTVYCQMNSLKPEDTAVYYCAATKYVDVKYYYWGQGTQVTVSS", "polyreactivity (PSR sort gate)": "low polyreactivity"}, {"sequence": "QVQLVESGGGLVQAGGSLRLSCAASGSIFGDYDMGWYRQAPGKERELVAAITSGGSTDYADSVKGRFTISRDNAKNTVYLQMNRLKPEDTAVYYCAAEDKCGYFLFPFWLELDYWGQGTQVTVSS", "polyreactivity (PSR sort gate)": "low polyreactivity"}, {"sequence": "QVQLVESGGGLVQAGGSLRLSCAASGSIFGFYAMGWYRQAPGKERELVAVISVSDGSTYYADSVKGRFTISRDNAKNTVYLQMNCLKPEDTAVYYCAATPRGSYGYYYWGQGTQVTVSS", "polyreactivity (PSR sort gate)": "low polyreactivity"}, {"sequence": "QVQLVESGGGLVQAGGSLRLSCAASGSIFGGNAMGWYRQAPGKERELVAAITDGGNTNYADSVKGRFTISRDNAKNTVYLQINSLKPEDTAVYYCAARIPGTYGGRYGYDYWGQGTQVTVSS", "polyreactivity (PSR sort gate)": "low polyreactivity"}, {"sequence": "QVQLVESGGGLVQAGGSLRLSCAASGSIFGGYAMGGYRQAPGKERELFARITDRGGSTDYADSVKGRFTISRDNAKNTVYLQMNRLKPEDTAVYYCAKRGDRYEKRPRDYWGQGTQVTVSS", "polyreactivity (PSR sort gate)": "low polyreactivity"}, {"sequence": "QVQLVESGGGLVQAGGSLRLSCAASGSIFGGYAMGGYRQAPGKERELVAAISWSGDSTYYADSVKGRFTISRDNANNTDYLQMNSLKPEDTAVYYCAAYYLAWYAFRYKTVGSAMDYWGQGTQVTVSS", "polyreactivity (PSR sort gate)": "low polyreactivity"}, {"sequence": "QVQLVESGGGLVQAGGSLRLSCAASGSIFGGYAMGSYRQAPGKERELVAAISSGGTTNYADSVKGRFTISRDNAKNTVYLQMNSLKPEDTAVYYCAREYGPTYQSVPVKFIQLDYWGQGTQVTVSS", "polyreactivity (PSR sort gate)": "low polyreactivity"}, {"sequence": "QVQLVESGGGLVQAGGSLRLSCAASGSIFGGYAMGWYRQAPGKERELVAAISSGGSTYYADSVKGRFTISRDNAKNTVYLQMNSLKPEDTAVYYCATSTYAYRRNSYYYTRPRFGYWGQGTQVTVSS", "polyreactivity (PSR sort gate)": "high polyreactivity"}, {"sequence": "QVQLVESGGGLVQAGGSLRLSCAASGSIFGGYAMGWYRQAPGKERELVAAISYRGASTYYADSVKGRFTISRDNAKNTVYLQMNSLKPEDTAVYYCAVAARTRARVLYGYDYWGQGSQVTVSS", "polyreactivity (PSR sort gate)": "low polyreactivity"}, {"sequence": "QVQLVESGGGLVQAGGSLRLSCAASGSIFGGYAMGWYRQAPGKERELVAAITWNGGSTYYADSVKGRFTISRDNAKNTVYLQMNSLKPEDTAVYYCAAELPGRDAGRYDYWGQGTQVTVSS", "polyreactivity (PSR sort gate)": "low polyreactivity"}, {"sequence": "QVQLVESGGGLVQAGGSLRLSCAASGSIFGGYAMGWYRQAPGKEREWVAAITSSGGRTYYADSVKGRFTISRDNAKNTVYLQMNSLKPEDTAVYYCAARYTRWRYNYKDYDYWGQGTQVTVSS", "polyreactivity (PSR sort gate)": "high polyreactivity"}, {"sequence": "QVQLVESGGGLVQAGGSLRLSCAASGSIFGGYGMGWYSQAPGKERELVAAITSGSSTYYADSVKGRFTISRDNAKNTVYLLMNSLKPEDTAVYYCAKVSYYPWRYDYWGQGTQVTVTS", "polyreactivity (PSR sort gate)": "low polyreactivity"}, {"sequence": "QVQLVESGGGLVQAGGSLRLSCAASGSIFGGYTMGWYRPAPGKERELVAAITKNGGRTYYADSVKGRFTISRDTAKPTVYLQMNSLKPEDTAVYYCAAATSPSWYTWVTYDYWGQGTQVTVSS", "polyreactivity (PSR sort gate)": "high polyreactivity"}, {"sequence": "QVQLVESGGGLVQAGGSLRLSCAASGSIFGGYTMGWYRQAPGKERELVAGITISGGSTYYADSVKGRFTISRDNAKNTVYLQMNSLKPEDTAVYYCAAVSFVVSSWGYGYWGQGTQVTVSS", "polyreactivity (PSR sort gate)": "low polyreactivity"}, {"sequence": "QVQLVESGGGLVQAGGSLRLSCAASGSIFGGYTMGWYRQPPGKERELVATISRRGGRTYYADSVKGRFTISRDNAKNTVYLQMNSLKPEDTAVYYCAARWGRGLEFDYWGQGTQVTVSS", "polyreactivity (PSR sort gate)": "high polyreactivity"}, {"sequence": "QVQLVESGGGLVQAGGSLRLSCAASGSIFGHNTMGWYRPAPGKERELVAAITWNGGRTYYADSVKGRFTISRDNAMNTVYLQMNSLKPEDTAVYYCNAVVKTYAYKAHRYPSTRLNYWGQGTQVTVSS", "polyreactivity (PSR sort gate)": "high polyreactivity"}, {"sequence": "QVQLVESGGGLVQAGGSLRLSCAASGSIFGINVMGWYRQAPGKERELVAAITSGTSTYYADSVKGRFTISRDNANNTVYLQMNSLKPEDTAVYYCAALWSSRYVVHPQWYDYWGQGTQVTVSS", "polyreactivity (PSR sort gate)": "low polyreactivity"}, {"sequence": "QVQLVESGGGLVQAGGSLRLSCAASGSIFGIYAKGWYRQAPGKERELVAAITTTGGTSDYADSVKGRFTISRENAKNTVYVQMKSLKPVDTAVYYCAADAYYYWYYSLDYYYWGQGTQVTVSS", "polyreactivity (PSR sort gate)": "high polyreactivity"}, {"sequence": "QVQLVESGGGLVQAGGSLRLSCAASGSIFGIYAMGWYRPAPGKERELVATINSRGTTNYADSVKGRFTISRDNAKNTVYLQMNSLKPEDTAVYYCAARFSTYRGKRKGYEYWGQGTQVTVSS", "polyreactivity (PSR sort gate)": "high polyreactivity"}, {"sequence": "QVQLVESGGGLVQAGGSLRLSCAASGSIFGIYAMGWYRQAPGKERELVAAISGSGGDTYYADSVKGRFTISRDNAKNTVYLQMNSLKPEDTAVYYCAATTGAAYPFDYWGQGTQVTVSS", "polyreactivity (PSR sort gate)": "low polyreactivity"}, {"sequence": "QVQLVESGGGLVQAGGSLRLSCAASGSIFGKNAMGWYRQAPGKERELVAAITSTGTSTYYADSVKGRFTISRDTAKNTVYLQMNSLKAEDTAVYYCADETARWDYGYWGQGTQVTVSS", "polyreactivity (PSR sort gate)": "low polyreactivity"}, {"sequence": "QVQLVESGGGLVQAGGSLRLSCAASGSIFGKYAMGWYRQAPGKERELVAAISYSGGSTYYADSVKGRFTISRDNAKNTVYLQMNSLKPEDTAVYYCAVRGWGSAGKYDYWGQGTQVTVSS", "polyreactivity (PSR sort gate)": "high polyreactivity"}, {"sequence": "QVQLVESGGGLVQAGGSLRLSCAASGSIFGKYAMGWYRQAPGKERELVATINRGGGGTYYADSVKGRFTISRDNAKNTVYLQMNSLKPEDTAVYYWAVSYRSYVWYGYWGQGTQVTVSS", "polyreactivity (PSR sort gate)": "high polyreactivity"}, {"sequence": "QVQLVESGGGLVQAGGSLRLSCAASGSIFGLNAMGWYRQAPGKERELVAAISGGSTNYADSVKGRFTISRDNAKNTVYLQMNSLKPEDTAVYYCAARARRRYYYWGQGTQVTVSS", "polyreactivity (PSR sort gate)": "high polyreactivity"}, {"sequence": "QVQLVESGGGLVQAGGSLRLSCAASGSIFGLYAMGWYRQAPGKERELVAAINWNGGDTYYADSVKGRFTISRDNAKNTVYLQMNSLKPEDTAVYYCAAELYRYGIRRRHYDYWGQGTLVTVSS", "polyreactivity (PSR sort gate)": "low polyreactivity"}, {"sequence": "QVQLVESGGGLVQAGGSLRLSCAASGSIFGLYAMGWYRQAPGKERELVAAISRSGGSTYYADSVKGRFTISRDNAKNTVYLQMYSLKPEDSAVYDCNALRWSQYTYSSRLGHFDSWGQGTQVTVSS", "polyreactivity (PSR sort gate)": "high polyreactivity"}, {"sequence": "QVQLVESGGGLVQAGGSLRLSCAASGSIFGLYAMGWYRQAPGKERELVAAISTSSGRTYYADSVKGRFTISRDNAKNTVYLQMNSLKPEDTAVYYCNARVYVTSGFRYDYWGQGTQVTVSS", "polyreactivity (PSR sort gate)": "high polyreactivity"}, {"sequence": "QVQLVESGGGLVQAGGSLRLSCAASGSIFGLYAMGWYRQAPGKERELVAAITDSTGSTSYADSVKGRFTISRDNAKNTVYLQMTSLKPEDTAVYYCAAGQGRWRHGFDYWGQGTQVTVSS", "polyreactivity (PSR sort gate)": "low polyreactivity"}, {"sequence": "QVQLVESGGGLVQAGGSLRLSCAASGSIFGNYVMGWYRQSPGKERELVAAISWSGGTNYADSVKGRFTISRDNAKNTVYLQMNSLKPEDTAVYYCATVIRGHKRFAYGYWGQGTQVTVSS", "polyreactivity (PSR sort gate)": "high polyreactivity"}, {"sequence": "QVQLVESGGGLVQAGGSLRLSCAASGSIFGPNAMGRSRQAPGKERELVAAISWVGGSTYYADSVKGRFTISGDIAKNTVYLQMNSLKPEDTAVYYCNASGYHDTALRYDYWGQGTQVTVSS", "polyreactivity (PSR sort gate)": "low polyreactivity"}, {"sequence": "QVQLVESGGGLVQAGGSLRLSCAASGSIFGPNAMGWYRQAPGKERELVAAITLSGGSTYYADSVKGRFTISRDNAKNTVYLQMNSLKPEDTAVYYCNADLLPADAPLWVTGGDYWGQGTQVTVSS", "polyreactivity (PSR sort gate)": "low polyreactivity"}, {"sequence": "QVQLVESGGGLVQAGGSLRLSCAASGSIFGPNAMGWYRQAPGKERELVAAITSGSSTKYADSVKGRFTISRDNATNTVYLQMNSLKPEDTAVYYCAASGTSTWKYGYWGQGSQVTVSS", "polyreactivity (PSR sort gate)": "low polyreactivity"}, {"sequence": "QVQLVESGGGLVQAGGSLRLSCAASGSIFGPYAMGGYRQAPGKERELVAAISSGGSTNYADSVKGRFTISRDNAKNTVYLQMNSLKPEDTAVYYCAADRKYFYLWLDQEHRYYWGQGTQVTVSS", "polyreactivity (PSR sort gate)": "low polyreactivity"}, {"sequence": "QVQLVESGGGLVQAGGSLRLSCAASGSIFGPYAMGWYRQAPGKERELVAAISNGGTTYYADSVKGRFTISRDNAKYTVYLQMNSLKPEDTAVYYCNAEQYLYYILGNYDYWGQGTQVTVSS", "polyreactivity (PSR sort gate)": "low polyreactivity"}]}]}
